The assay concerns the target T1, ER (Homo sapiens, UniProt P03372, G400V).
T1 construct: Full-length ER and TR2 in eukaryotic expression vectors (pSG5-ER and pCMV-TR2) were co-transfected; expressed in transfected cells; host or cells: PC-3 and H1299 (pSG5-ER transfected)
T1 sequence (P03372 1-595 G400V): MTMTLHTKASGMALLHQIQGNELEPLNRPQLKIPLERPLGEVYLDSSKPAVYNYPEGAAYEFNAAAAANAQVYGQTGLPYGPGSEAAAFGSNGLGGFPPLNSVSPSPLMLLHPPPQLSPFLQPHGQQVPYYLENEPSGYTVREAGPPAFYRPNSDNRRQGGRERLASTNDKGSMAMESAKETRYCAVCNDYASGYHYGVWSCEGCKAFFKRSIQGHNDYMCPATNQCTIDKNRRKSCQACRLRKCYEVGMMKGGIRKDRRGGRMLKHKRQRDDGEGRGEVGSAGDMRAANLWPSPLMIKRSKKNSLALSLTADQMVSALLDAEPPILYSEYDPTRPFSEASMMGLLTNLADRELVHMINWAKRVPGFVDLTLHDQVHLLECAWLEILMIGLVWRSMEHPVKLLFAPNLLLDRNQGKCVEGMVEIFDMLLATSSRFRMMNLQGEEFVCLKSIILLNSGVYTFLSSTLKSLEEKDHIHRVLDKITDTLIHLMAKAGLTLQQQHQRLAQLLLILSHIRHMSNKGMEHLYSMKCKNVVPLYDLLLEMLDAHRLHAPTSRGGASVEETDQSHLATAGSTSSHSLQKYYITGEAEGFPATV
Description: ER-mediated transactivation reporter assay (ERE-CAT / ERE-Luc). It is filed as cell-based. As to conditions: for Activity ER (effect of regulator on transcription activity): Table 5. How it is done:
Transfections and chloramphenicol acetyltransferase (CAT) assays were performed as described previously. Yeh, & Chang, Proc. Natl. Acad. Sci. 93, 5517-5521 (1996). Briefly, 4×10^5 cells were plated in 60-mm dishes and cultured for 24 h, and then the medium was changed to phenol red free DMEM with 5% charcoal-stripped FCS 2 h before transfection. The cells were co-transfected with TR2 and/or ER expression plasmids with 2 μg of TR2-TK-CAT reporter or 1 μg of ERE-CAT reporter gene plasmid, as indicated in the Figures, by using the calcium phosphate precipitation method. A β-gal actosidase expression plasmid, pCMV-β-gal, was transfected in all transfections as an internal control for normalizing transfection efficiency. The total amount of DNA was adjusted up to 10.5 μg with parent vectors, pSG5 or pCMV in each transcriptional activity assay. […] The cells were then harvested and whole cell extracts were used for CAT assay. The CAT activity was quantitated by Phosphorlmager (Molecular Dynamics). Data are presented as means±S.D. of at least three independent experiments.
Transfections and chloramphenicol acetyltransferase (CAT) assays were performed using the calcium phosphate precipitation method, as described previously (Yeh, S. et al. (2000) Proc. Natl. Acad. Sci. USA 97, 11256-61). CAT reporter plasmids containing one copy of estrogen response element (ERE-CAT), or mouse mammary tumor virus (MMTV-CAT) were used as indicated. Also, a β-galactosidase expression plasmid, pCMV-β-gal, was used for transfection efficiency.
H1299 and MCF-7 cells were maintained in Dulbecco's modified eagle medium (DMEM) containing penicillin (25 units/ml), streptomycin (25 μg/ml), and 10% fetal calf serum (FBS). Transfections were performed using the calcium phosphate precipitation method, as described previously (Lee, Y. et al. (1999) Proc. Natl. Acad Sci. USA. 96(26) 14724-9). Briefly, 3×10^5 cells were plated on 60-mm dishes for 24 h before transfection, and the medium was changed to DMEM with 10% charcoal/dextran-stripped FBS. H1299 cells were transfected with an ER expression plasmid (pSG5-ER or pCMV-mERβ, ERE-chloramphenicol acetyltransferase (ERE-CAT) or pSG5-PR and MMTV-Luciferase reporter plasmid, and a TR4 expression plasmid (pCMV-TR4) ERZ-CAT Bradshaw et al., (1991) J. Biol. Chem. 266:16684-16690 and pCMVB-gal and PSV-RL from promega, all of which are herein incorporated by reference at least for material related to plasmids and assays, including sequence.) MCF-7 cells were only transfected with ERE-CAT reporter and TR4 expression plasmid. For all transfection experiments, pCMVβ-gal (CAT assay) or pSV-40 RL (Luciferase assay) was used as an internal control for transfection efficiency and the total amount of transfected DNA was adjusted to 12 μg with pCMV. […] After another 24 h, the cells were harvested for CAT assay or Luciferase assay. The CAT activity was visualized by Phosphorlmager (Molecular Dynamics) and quantitated by IMAGEQUANT software (Molecular Dynamics). The luciferase activity was determined by the Luminometer (Turner Designs).
Background: A reporter such as luciferase makes a cellular process visible.

The text below walks through data of patent US20030235860A1, “Interactions between AR, ER, TR2, and TR4” (priority 1999, published 2003).

No end group written: not given here.

Regarding “ER-#6: interaction blocker, ER fragment aa 312-340, as HA-tagged peptide, expression plasmid or cleaved peptide (ADQMVSALLDAEPPILYSEYDPTRPFSEA; also: HA tag (position not given here); UniProt P03372 312-340, looked up, fragment)”, the “Effect on TR2-mediated suppression of ER transcription (ERE-CAT)” value (MCF7-TR2 cells, E2 and doxycycline) is “reversing this suppression”. Also, the “ER transcription (ERE-luciferase)” value (MCF7 cells, increasing amounts of plasmid) is recorded as “enhance ER transcription”.

B1: TR2: human testicular orphan nuclear receptor 2, 603 amino acids (protein, UniProt P13056 1-603, looked up)
chain: MATIEEIAHQIIEQQMGEIVTEQQTGQKIQIVTALDHNTQGKQFILTNHDGSTPSKVILARQDSTPGKVFLTTPDAAGVNQLFFTTPDLSAQHLQLLTDNSPDQGPNKVFDLCVVCGDKASGRHYGAVTCEGCKGFFKRSIRKNLVYSCRGSKDCIINKHHRNRCQYCRLQRCIAFGMKQDSVQCERKPIEVSREKSSNCAASTEKIYIRKDLRSPLTATPTFVTDSESTRSTGLLDSGMFMNIHPSGVKTESAVLMTSDKAESCQGDLSTLANVVTSLANLGKTKDLSQNSNEMSMIESLSNDDTSLCEFQEMQTNGDVSRAFDTLAKALNPGESTACQSSVAGMEGSVHLITGDSSINYTEKEGPLLSDSHVAFRLTMPSPMPEYLNVHYIGESASRLLFLSMHWALSIPSFQALGQENSISLVKAYWNELFTLGLAQCWQVMNVATILATFVNCLHNSLQQDKMSTERRKLLMEHIFKLQEFCNSMVKLCIDGYEYAYLKAIVLFSPDHPSLENMEQIEKFQEKAYVEFQDYITKTYPDDTYRLSRLLLRLPALRLMNATITEELFFKGLIGNIRIDSVIPHILKMEPADYNSQIIGHSI
modifications: full-length
notes: human testicular orphan nuclear receptor 2, 603 amino acids
As to B1, the “Activity ER (effect of regulator on transcription activity)” value is “Down”. Also, for the setting “MCF7-TR2 cells, doxycycline-induced TR2”, the “E2-induced ER transcription (ERE-CAT)” value is listed as “significantly repressed”. Moreover, the “ERE-CAT activity, transfected ER” value (PC-3 and H1299 cells, 10 nM E2, increasing TR2 expression vector) was “suppression of ER transactivation in a dose-dependent manner”. Also, the “Endogenous ER-mediated ERE-CAT activity” value (T47D cells, increasing TR2 expression plasmid) was “repress”. For the same molecule, the “ER-mediated transcription (ERE-CAT or ERE-luciferase)” value (exogenous ER (PC-3, H1299) or endogenous ER (MCF7, T47D), Example 2) is “consistently suppressed”.

B2: TR4: human testicular orphan nuclear receptor 4, SEQ ID NO:16; expressed from plasmid or in vitro translated (protein)
chain: MTSPSPRIQIISTDSAVASPQRIQGSEPASGPLSVFTSLNKEKIVTDQQTGQKIQIVTAVDASGSPKQQFILTSPDGAGTGKVILASPETSSAKQLIFTTSDNLVPGRIQIVTDSASVERLLGKTDVQRPQVVEYCVVCGDKASGRHYGAVSCEGCKGFFKRSVRKNLTYSCRSSQDCIINKHHRNRCQFCRLKKCLEMGMKMESVQSERKPFDVQREKPSNCAASTEKIYIRKDLRSPLIATPTFVADKDGARQTGLLDPGMLVNIQQPLIREDGTVLLATDSKAETSQGALGTLANVVTSLANLSESLNNGDTSEIQPEDQSASEITRAFDTLAKALNTTDSSSSPSLADGIDTSGGGSIHVISRDQSTPIIEVEGPLLSDTHVTFKLTMPSPMPEYLNVHYICESASRLLFLSMHRARSIPAFQGLGQDCNTSLVRACWNELFTLGLAQCAQVMSLSTILAAIVNHLQNSIQEDKLSGDRIKQVMEHIWKLQEFCNSMANWDIDGYEYAYLKAIVLFSPDHPGLTSTSQIEKFQEKAQMELQDYVQKTYSEDTYRLARILVRLPALRLMSSNITEELFFTGLIGNVSIDSIIPYILKMETAEYNGQITGVSL
For B2, the “Activity ER (effect of regulator on transcription activity)” value is listed as “Down”. The “E2-induced ERE-CAT activity, ERα” value (H1299 cells, 10 nM E2, increasing TR4 expression plasmid) was “suppression of the E2-induced CAT activity in a dose-dependent manner”. Further, the “ER transactivation (ERE-CAT)” value (H1299 cells, ERα, 10 nM E2, full-length or C-terminal deletion TR4) is “repress ER transactivation in a dose-dependent manner”. Further, the ERE-CAT activity entry (MCF-7-TR4 cells, 2 μg/ml Dox-induced TR4) is recorded as “repress”. The “Endogenous ER-mediated CAT reporter activity” value (MCF-7 cells, increasing TR4) is “gradual decrease”.
